Test results taken from US20050037969A1.
Ends that are not written are not given here. * marks the point of attachment. Biotin = O=C1N[C@H]2[C@H](CS[C@H]2CCCCC(=O)*)N1

Legend:
[1] = target: GST-WWP3 (MAGI-1) fusion protein (PDZ domains 1-2) (Homo sapiens) (UniProt Q96QZ7); test: G assay format, competition against labeled DNAM-1 peptide
[2] = target: GST-NeDLG fusion protein (PDZ domains 1-2) (Mus musculus (Mouse)) (UniProt P70175); test: G assay titration of biotinylated peptide on plate-bound GST-PDZ, apparent affinity from saturation fit
[3] = target: GST-DLG1 fusion protein (PDZ domains 1-2) (human) (UniProt Q12959); test: as above
[4] = target: GST-TIP-1 PDZ domain fusion protein (Homo sapiens) (UniProt O14907); test: competition for TIP1 binding, reference CD95
[5] = target: GST-TIP-1 PDZ domain fusion protein (Homo sapiens) (UniProt O14907); test: G assay competition against CD95 20-mer
[6] = target: GST-TIP-1 PDZ domain fusion protein (Homo sapiens) (UniProt O14907); test: G assay competition against 20 uM CD95 20-mer
[7] = target: GST-TIP-1 PDZ domain fusion protein (Homo sapiens) (UniProt O14907); test: G assay competition against 20 uM TAX 20-mer

## SRRPKTRV [peptide corresponding to the C-terminal 8 amino acids of DNAM-1]
[1]
  inhibitor concentration giving at least 50% inhibition: 20 to 200 µM

## Biotin-KDITSDSENSNFRNEIQSLV [CD95 (Fas) C-terminal peptide AA13L, biotinylated]
[2]
  Kd: 54 µM
[3]
  Kd: 54 µM

## KHFRETEV [8-mer peptide corresponding to the C-terminus of TAX]
[4]
  fold better competition for binding to TIP1 than CD95: 1000 fold
[5]
  concentration that effectively blocked binding: 100 µM
[6]
  IC50: 20 to 100 µM

## Biotin-ISGTPTSTMVHGMTSSSSVV [Clasp-2 C-terminal peptide AA2L, biotinylated]
[2]
  Kd: 7.5 µM
[3]
  Kd: 21 µM

## RNEIQSLV [Fas (CD95) 8-mer competitor peptide RNEIQSLV (unlabeled)]
[7]
  IC50: 500 µM
